Target: T1, VP2 from Rotavirus A WA strain (Rotavirus A WA strain, UniProt P11231 1-890)
T1 construct: Expressed in N. benthamiana from construct 1710 and purified as part of rotavirus-like particles; also called RVA(WA) VP2; VP2(opt)
T1 sequence: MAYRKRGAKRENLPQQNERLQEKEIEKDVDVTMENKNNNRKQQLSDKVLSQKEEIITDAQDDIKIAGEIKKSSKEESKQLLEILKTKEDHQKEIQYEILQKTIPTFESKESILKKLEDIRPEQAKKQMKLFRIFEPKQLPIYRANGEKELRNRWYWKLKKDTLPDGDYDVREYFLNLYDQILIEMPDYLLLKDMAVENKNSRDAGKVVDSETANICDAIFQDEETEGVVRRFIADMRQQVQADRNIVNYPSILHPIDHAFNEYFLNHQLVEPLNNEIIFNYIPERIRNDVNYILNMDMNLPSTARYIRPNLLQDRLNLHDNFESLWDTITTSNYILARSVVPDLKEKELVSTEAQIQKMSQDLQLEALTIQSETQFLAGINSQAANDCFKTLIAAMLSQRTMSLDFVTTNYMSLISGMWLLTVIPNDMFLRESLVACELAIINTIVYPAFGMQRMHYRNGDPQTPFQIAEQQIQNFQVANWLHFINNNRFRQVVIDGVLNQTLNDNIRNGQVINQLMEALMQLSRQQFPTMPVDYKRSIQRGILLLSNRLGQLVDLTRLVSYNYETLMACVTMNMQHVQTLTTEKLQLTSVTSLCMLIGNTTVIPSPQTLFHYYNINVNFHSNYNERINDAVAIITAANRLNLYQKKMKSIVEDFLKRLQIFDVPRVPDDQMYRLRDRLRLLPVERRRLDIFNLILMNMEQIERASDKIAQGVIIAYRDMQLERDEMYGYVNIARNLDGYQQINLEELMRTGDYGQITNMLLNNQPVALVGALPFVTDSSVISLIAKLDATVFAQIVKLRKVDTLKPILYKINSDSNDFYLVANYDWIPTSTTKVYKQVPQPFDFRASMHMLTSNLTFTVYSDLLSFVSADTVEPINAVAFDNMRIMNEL
Assay: co-expression in N. benthamiana, iodixanol gradient, cryo-electron microscopy

B1: VP6 from Rotavirus A WA strain (other)
chain: MEVLYSLSKTLKDARDKIVEGTLYSNVSDLIQQFNQMIVTMNGNDFQTGGIGNLPVRNWTFDFGLLGTTLLNLDANYVENARTIIEYFIDFIDNVCMDEMARESQRNGVAPQSEALRKLAGIKFKRINFDNSSEYIENWNLQNRRQRTGFVFHKPNIFPYSASFTLNRSQPMHDNLMGTMWLNAGSEIQVAGFDYSCAINAPANIQQFEHIVQLRRALTTATITLLPDAERFSFPRVINSADGATTWFFNPVILRPNNVEVEFLLNGQIINTYQARFGTIIARNFDAIRLLFQLMRPPNMTPAVNALFPQAQPFQHHATVGLTLRIESAVCESVLADANETLLANVTAVRQEYAIPVGPVFPPGMNWTELITNYSPSREDNLQRVFTVASIRSMLIK
notes: Expressed in N. benthamiana from construct 1713 and purified as part of rotavirus-like particles; also called RVA(WA) VP6; VP6(opt)
  binding result: binds
